How the values were obtained:
Assay in all cases: Kinase Profiling Assay
Format in all cases: biochemical
Details in all cases: for % activity: 100 μM
[1] = molecular target: STK33(h) (Homo sapiens, UniProt Q9BYT3)
[2] = molecular target: T1, DRAK1(h) (Homo sapiens, UniProt Q9UEE5)
T1 sequence (Q9UEE5 1-414): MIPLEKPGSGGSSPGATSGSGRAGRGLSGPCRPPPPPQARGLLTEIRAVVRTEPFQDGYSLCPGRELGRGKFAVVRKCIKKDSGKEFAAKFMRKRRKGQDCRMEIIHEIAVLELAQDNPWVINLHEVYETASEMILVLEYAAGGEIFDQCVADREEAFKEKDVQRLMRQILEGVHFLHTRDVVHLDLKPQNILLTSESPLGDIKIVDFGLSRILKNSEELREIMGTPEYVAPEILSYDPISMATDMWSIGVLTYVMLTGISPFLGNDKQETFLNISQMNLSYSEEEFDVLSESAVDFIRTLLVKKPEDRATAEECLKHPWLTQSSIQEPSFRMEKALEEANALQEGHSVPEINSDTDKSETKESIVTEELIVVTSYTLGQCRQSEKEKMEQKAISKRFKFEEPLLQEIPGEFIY

[3] = molecular target: PKCδ(h) (Homo sapiens, UniProt Q05655)
[4] = molecular target: JAK2(h) (Homo sapiens, UniProt O60674)
[5] = molecular target: SAPK2a(T106M)(h) (Homo sapiens, UniProt Q16539, T106M)
[6] = molecular target: CHK2(R145W)(h) (Homo sapiens, UniProt O96017, R145W)
[7] = molecular target: SRPK2(h) (Homo sapiens, UniProt P78362)
[8] = molecular target: cSRC(h) (Homo sapiens, UniProt P12931)
[9] = molecular target: T2, ZAP-70(h) (Homo sapiens, UniProt P43403)
T2 sequence (P43403 1-619): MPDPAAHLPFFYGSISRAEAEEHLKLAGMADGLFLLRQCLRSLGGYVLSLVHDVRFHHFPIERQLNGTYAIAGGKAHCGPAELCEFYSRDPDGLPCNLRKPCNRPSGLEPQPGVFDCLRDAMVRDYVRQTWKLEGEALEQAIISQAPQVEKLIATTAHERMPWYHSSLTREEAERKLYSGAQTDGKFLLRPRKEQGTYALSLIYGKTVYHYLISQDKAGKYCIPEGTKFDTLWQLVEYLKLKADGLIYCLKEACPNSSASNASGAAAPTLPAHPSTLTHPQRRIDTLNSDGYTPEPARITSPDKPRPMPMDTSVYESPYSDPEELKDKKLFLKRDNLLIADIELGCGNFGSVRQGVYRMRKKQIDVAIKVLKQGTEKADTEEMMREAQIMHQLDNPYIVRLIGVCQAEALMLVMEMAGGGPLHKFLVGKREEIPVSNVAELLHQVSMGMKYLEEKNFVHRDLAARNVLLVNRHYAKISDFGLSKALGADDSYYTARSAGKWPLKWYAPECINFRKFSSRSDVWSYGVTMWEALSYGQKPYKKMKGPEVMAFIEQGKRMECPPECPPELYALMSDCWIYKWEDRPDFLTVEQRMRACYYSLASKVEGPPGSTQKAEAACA

[10] = molecular target: cKit(h) (Homo sapiens, UniProt P10721)
[11] = molecular target: MSSK1(h) (Homo sapiens, UniProt Q9UPE1)
[12] = molecular target: CHK2(I157T)(h) (Homo sapiens, UniProt O96017, I157T)
[13] = molecular target: T3, IRAK4(h) (Homo sapiens, UniProt Q9NWZ3)
T3 sequence (Q9NWZ3 1-460): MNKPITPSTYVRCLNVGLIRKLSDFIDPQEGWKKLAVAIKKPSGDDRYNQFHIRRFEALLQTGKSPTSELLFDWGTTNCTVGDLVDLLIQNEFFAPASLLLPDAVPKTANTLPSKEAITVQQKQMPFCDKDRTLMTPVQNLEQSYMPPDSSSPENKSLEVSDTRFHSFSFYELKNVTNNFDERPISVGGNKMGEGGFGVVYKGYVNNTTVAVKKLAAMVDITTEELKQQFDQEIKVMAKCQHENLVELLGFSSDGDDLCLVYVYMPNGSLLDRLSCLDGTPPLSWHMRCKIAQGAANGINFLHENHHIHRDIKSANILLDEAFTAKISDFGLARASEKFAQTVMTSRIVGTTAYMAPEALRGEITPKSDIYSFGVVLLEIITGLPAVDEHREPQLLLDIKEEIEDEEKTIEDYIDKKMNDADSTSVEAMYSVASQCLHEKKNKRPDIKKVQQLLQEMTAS

Chain of STK33(h) (Q9BYT3 whole entry): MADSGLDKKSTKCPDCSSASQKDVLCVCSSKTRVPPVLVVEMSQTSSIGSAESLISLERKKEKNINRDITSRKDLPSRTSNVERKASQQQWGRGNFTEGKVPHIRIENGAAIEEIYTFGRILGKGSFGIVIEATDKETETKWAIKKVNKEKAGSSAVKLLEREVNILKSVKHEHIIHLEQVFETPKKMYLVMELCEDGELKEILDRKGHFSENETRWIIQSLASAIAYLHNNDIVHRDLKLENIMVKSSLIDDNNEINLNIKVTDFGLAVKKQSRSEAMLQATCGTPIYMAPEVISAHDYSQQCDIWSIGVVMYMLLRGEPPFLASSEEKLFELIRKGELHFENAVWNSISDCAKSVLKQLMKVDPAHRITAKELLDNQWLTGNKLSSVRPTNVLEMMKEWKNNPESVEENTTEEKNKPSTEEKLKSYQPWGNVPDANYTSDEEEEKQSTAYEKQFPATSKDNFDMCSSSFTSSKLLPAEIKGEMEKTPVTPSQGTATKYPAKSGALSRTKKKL
Chain of JAK2(h) (O60674 whole entry): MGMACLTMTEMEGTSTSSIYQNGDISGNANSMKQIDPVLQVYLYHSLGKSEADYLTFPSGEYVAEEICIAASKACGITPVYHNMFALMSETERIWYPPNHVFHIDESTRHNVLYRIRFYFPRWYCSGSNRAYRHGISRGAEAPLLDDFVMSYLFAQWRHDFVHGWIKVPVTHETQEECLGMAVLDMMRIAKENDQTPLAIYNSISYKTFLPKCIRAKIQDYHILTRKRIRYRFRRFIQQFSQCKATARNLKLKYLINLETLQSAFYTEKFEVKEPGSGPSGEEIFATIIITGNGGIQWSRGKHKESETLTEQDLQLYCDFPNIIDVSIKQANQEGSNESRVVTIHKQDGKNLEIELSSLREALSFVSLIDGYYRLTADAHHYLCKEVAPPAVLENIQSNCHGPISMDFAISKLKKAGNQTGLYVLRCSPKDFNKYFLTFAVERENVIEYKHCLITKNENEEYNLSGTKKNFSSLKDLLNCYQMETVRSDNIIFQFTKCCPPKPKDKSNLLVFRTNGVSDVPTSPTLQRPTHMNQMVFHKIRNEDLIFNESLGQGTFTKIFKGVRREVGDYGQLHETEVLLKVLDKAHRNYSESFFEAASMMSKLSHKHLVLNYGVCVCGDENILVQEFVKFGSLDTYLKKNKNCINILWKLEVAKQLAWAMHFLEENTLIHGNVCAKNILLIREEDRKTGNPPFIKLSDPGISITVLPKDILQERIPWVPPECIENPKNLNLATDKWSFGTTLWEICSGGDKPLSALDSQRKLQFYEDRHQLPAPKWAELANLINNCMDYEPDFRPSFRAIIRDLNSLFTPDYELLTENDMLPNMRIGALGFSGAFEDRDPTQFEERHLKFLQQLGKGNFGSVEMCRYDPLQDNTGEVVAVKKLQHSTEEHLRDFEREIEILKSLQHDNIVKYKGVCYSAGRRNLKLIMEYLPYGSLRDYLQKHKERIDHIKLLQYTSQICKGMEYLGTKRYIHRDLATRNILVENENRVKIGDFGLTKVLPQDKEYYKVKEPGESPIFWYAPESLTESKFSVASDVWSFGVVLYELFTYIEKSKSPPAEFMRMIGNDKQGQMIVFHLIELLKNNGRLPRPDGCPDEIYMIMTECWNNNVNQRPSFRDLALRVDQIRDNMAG
Chain of CHK2(R145W)(h) (O96017 whole entry R145W): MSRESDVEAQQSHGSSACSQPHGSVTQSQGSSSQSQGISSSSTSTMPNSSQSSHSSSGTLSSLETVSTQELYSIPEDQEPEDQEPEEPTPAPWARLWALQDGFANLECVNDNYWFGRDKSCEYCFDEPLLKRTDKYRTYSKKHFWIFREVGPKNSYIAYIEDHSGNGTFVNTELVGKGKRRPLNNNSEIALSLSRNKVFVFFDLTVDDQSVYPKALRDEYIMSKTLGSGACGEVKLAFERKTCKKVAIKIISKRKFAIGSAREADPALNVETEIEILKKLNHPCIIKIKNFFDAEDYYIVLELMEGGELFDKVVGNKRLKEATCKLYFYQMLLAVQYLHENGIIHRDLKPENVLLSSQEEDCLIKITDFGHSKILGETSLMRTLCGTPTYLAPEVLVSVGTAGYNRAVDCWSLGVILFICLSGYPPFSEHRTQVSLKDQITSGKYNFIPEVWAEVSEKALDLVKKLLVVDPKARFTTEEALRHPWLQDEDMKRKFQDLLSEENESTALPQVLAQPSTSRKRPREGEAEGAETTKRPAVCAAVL
Chain of MSSK1(h) (Q9UPE1 whole entry): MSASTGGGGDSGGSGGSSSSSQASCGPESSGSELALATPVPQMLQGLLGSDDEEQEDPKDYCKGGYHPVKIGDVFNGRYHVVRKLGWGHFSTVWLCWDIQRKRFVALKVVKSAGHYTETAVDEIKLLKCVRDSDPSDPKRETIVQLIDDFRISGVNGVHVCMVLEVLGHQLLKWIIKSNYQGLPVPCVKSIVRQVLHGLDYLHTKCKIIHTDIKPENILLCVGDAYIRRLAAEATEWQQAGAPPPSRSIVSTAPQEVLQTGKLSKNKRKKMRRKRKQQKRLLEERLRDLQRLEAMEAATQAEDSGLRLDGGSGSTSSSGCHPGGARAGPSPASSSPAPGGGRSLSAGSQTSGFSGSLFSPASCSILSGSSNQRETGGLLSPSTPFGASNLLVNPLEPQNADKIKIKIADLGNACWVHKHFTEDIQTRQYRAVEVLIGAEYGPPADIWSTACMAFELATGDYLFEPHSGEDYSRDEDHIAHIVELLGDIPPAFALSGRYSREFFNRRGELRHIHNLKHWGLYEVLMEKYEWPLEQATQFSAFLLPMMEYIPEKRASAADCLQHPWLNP
Chain of SRPK2(h) (P78362 whole entry): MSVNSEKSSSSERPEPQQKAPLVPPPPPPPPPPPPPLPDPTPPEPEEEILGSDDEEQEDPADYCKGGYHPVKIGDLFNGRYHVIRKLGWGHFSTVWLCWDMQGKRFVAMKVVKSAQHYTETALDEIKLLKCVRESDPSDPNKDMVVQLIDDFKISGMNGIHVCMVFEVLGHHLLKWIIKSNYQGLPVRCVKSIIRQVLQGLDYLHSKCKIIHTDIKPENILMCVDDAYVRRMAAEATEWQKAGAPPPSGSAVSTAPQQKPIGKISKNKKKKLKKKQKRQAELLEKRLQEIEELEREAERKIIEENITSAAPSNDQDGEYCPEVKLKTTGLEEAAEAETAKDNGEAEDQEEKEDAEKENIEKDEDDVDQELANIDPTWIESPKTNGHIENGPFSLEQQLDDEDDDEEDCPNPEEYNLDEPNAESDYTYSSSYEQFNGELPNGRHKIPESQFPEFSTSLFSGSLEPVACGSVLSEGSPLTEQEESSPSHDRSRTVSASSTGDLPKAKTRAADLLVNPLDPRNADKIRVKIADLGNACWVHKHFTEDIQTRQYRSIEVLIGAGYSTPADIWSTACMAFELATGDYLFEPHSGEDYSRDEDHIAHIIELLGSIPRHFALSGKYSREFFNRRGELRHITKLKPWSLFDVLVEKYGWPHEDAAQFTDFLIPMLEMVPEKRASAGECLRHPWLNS
Chain of PKCδ(h) (Q05655 whole entry): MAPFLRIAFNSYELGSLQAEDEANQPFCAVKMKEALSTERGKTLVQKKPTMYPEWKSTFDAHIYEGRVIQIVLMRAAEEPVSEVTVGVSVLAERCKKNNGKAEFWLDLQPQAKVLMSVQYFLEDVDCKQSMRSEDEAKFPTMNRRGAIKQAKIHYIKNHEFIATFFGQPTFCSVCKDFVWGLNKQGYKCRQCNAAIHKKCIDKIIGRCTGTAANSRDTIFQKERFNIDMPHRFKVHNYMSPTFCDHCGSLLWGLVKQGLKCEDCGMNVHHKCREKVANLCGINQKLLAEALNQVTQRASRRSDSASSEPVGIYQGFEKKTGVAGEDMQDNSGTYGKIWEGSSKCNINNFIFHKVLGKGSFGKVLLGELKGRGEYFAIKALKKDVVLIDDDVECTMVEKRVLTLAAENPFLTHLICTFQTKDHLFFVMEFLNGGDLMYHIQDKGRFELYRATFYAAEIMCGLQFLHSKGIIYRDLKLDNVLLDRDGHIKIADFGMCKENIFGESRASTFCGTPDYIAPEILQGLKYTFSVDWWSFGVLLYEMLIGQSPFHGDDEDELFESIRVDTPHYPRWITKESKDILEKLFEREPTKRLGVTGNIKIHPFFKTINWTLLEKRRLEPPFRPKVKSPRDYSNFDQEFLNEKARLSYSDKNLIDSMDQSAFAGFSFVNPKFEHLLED
Chain of CHK2(I157T)(h) (O96017 whole entry I157T): as the sequence (O96017 whole entry R145W) above, with W145R, I157T counted along it
Chain of SAPK2a(T106M)(h) (Q16539 whole entry T106M): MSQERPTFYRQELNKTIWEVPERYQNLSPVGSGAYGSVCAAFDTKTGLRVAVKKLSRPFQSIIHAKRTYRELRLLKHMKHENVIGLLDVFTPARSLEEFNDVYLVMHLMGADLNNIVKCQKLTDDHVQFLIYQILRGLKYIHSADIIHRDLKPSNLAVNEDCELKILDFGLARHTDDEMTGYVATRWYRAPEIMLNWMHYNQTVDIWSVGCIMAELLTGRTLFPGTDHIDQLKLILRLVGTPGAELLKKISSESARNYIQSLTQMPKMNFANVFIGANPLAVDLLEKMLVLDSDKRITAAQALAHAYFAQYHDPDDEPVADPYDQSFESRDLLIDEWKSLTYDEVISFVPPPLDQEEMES

H-YARAAARQARAKALARQLGVAA-OH [MMI-0100]
activity at 100 µM [1]: 99% | activity at 100 µM [2]: 47% | activity at 100 µM [3]: 100% | activity at 100 µM [4]: 89% | activity at 100 µM [5]: 101% | activity at 100 µM [6]: 97% | activity at 100 µM [7]: 92% | activity at 100 µM [8]: 70% | activity at 100 µM [9]: 79% | activity at 100 µM [10]: 95% | activity at 100 µM [11]: 82% | activity at 100 µM [12]: 97% | activity at 100 µM [13]: 100%

YARAAARQARAKALNRQLGVA (Mammalian) [MMI-0200]
% activity [1]: 98% | % activity [2]: 34% | % activity [3]: 101% | % activity [4]: 131% | % activity [5]: 100% | % activity [6]: 81% | % activity [7]: 100% | % activity [8]: 32% | % activity [9]: 58% | % activity [10]: 110% | % activity [11]: 100% | % activity [12]: 85% | % activity [13]: 110%

HRRIKAWLKKIKALARQLGVAA (Mammalian) [MMI-0500]
% activity [1]: 16% | % activity [2]: 8% | % activity [3]: 61% | % activity [4]: 49% | % activity [5]: 32% | % activity [6]: 3% | % activity [7]: 80% | % activity [8]: 30% | % activity [9]: 1% | % activity [10]: 45% | % activity [11]: 22% | % activity [12]: 3% | % activity [13]: 3%

From US10087225B2, “Formulation of MK2 inhibitor peptides” (MOERAE MATRIX, INC., priority 2015, dated 2018)
